The results in this text go back to the RNAGym collection of RNA variant scans (doi:10.1073/pnas.2313332121).

B1: TPR 5TU (parent)
chain: GGAUCUUCUCGAUCUAACAAAAAAGACAAAUCUGCCACAAAGCUUGAGAGCAUCUUCGGAUGCAGAGGCGGCAGCCUUCGGUGGCGCGAUAGCGCCAACGUUCUCAACUAUGACACGCAAAACGCGUGCUCCGUUGAAUGGAGUUUAUCAUG

This sample holds only a part of the variants without activity.

In the data set the parent is B1. Description: polymerase ribozyme fitness, log enrichment relative to wild type (log ratio); higher = more active; in vitro selection for triplet polymerase activity. A digest of the protocol:
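Frozen incubation at −7 °C formed the core of a single, triplicate in vitro selection round applied to PCR-built, transcribed mutant libraries of each subunit of a heterodimeric triplet polymerase ribozyme. Extended constructs were gel-excised, captured with streptavidin beads and amplified by RT-PCR, and input and output libraries were Illumina-sequenced with a filter of ≥10 input reads and ≥1 read per output. Fitness is the logarithm of genotype enrichment relative to wild-type enrichment, with inverse-variance-weighted replicate averaging, and the logarithm is base 2.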
As for GGAUCUUCUCGAUCUAACAAAAAAGACAAAUCUGCCACAAAGCUUGAGAGCAUCUUUGUAUGCAGAGGCGGCAGCCUUCGGUGGCGCGAUAGUGCCAACGUUCUCAACUAUGACACGCAAAACGCGUGCUCCGUUUAAUGGAGUUUAUCAUG, the “polymerase ribozyme fitness (log ratio)” value was -2.96. With GGAUCUUCUCGAUCUAACAAAAAAGACAAAUCUGCCACAAAGCUUGAGAGCAUCUUUGGAUGCAGAGGCGGCAGCCUUCGGUGGUGCGAUAGCGCCAACGUUCUCAACUAUGACACGCAAAACGCGUGCUCCGUUGAAUGGAGUUGAUCAUG, the “polymerase ribozyme fitness (log ratio)” value is -1.44. The figure for GGAUCUUCUCGAUCUAACAAAAAAGACAAAUCUGCCACAAAGCUUGAGAGCAUCUUUGGAUGCAGAGGCGGCAGCCUUCGGUGGCGCGAUAGCGCCAACGUUCUCAACUAUGACACGCAAAACGAGUGCUCCGUUGAAUGGAGUUUAUCAUG is -0.844; for GGAUCUUCUCGAUCUAACAAAAAAGACAAAUCUGCCACAAAGCUUGAGAGCAUCUUUGGAUGCAGAGGCGGCAGCCUUCGGUGGCGCGAUAGCGCCUACGUUCUCAACUAUGACACGCAAAACGCGUGCUCCGUUGAAUGGAGUUUAUCAUG it is -1.22. With GGAUCUUCUCGAUCUAACAAAAAAGACAAAUCUGCCACAAAGCUUGAGAGCAUCUUUGGAUGCAGAGGCGGCAGCCUUCGGUGGCGCGAUAGCGCCAACGUUCUCAACUAUGACACGGAAAACGCGUGCUCCGUUGAAUGGAGUCUAUCAUG, the “polymerase ribozyme fitness (log ratio)” value was -0.881. The figure for GGAUCUUCUCGAUCUAACAAAAAAGACAAAUCUGCCACAAAGCUUGAGAGCAUCUUUGGAUGCAGAGGCGGCAGCCUUCGGUGGCGCGAUAGCGGCAACGUUCUCAACUAUGACACGCAGAACGCGUGCUCCGUUGAAUGGAAUUUAUCAUG is -2.18; for GGAUCUUCUCGAUCUAACAAAAAAGACAAAUCUGCCACAAAGCUUGAGAGCAUCUUGGGAUGCAGAGGCGGCAGCCUUCGGUGGCGCGAUAGCGCCAACGAUCUCAACUAUGACACGCAAAACGCGUGCUCCGUUGAAUGGAGUUUAUCAUG it is 0.403. Next, GGAUCUUCUCGAUCUAACAAAAAAGACAAAUCUGCCACAAAGCUUGAGAGCAUCUUUGGAUGCAGAGGCGGCAGCCUUAGGUGGCGCGAUAGCGCCAACGUUCUCAACUAUGACACGCAAAACGCGUGCUCCGUUGAAUGGAGUUUAUCAUG: -4.19. Next, GGAUCUUCUCGAUCUAACAAAAAAGACAAAUCUGCCACAAAGCUUGAGAGCAUCUUUGGAUGCAGAGGCGGCAGCCUUCGGUGGCGCGAUAGCGCCAACGUUGUCAACUAUGACACGCAAAACGCGUGCUCCGUUGAAUGGAGUUUAUCAUG: -1.7; GGAUCUUCUCGAUCUAACAAAAAAGACAAAUCUGCCACAAAGCUUGAGAGCAUCUUUGGCUGCAGAGGCGGCAGCCUUCGGUGGCACGAUAGCGCCAACGUUCUGAACUAUGACACGCAAAACGCGUGCUCCGUUGAAUGGAGUUUAUCAUG: no more than -4.2; GGAUCUUCUCGAUCUAACAAAAAAGACAAAUCUGCCACAAAGCUUGAGAGCAUCUUGGGAUGCAGAGGCGGCAGCCUUCGGUGGCGCGAUAGCGCCAACGUUCUCAACUAUGACACGCAAAACGCGUGCUCCGUUGAAUCGAGUUUAUCAUG: -4.08. On to GGAUCUUCUCGAUCUAACAAAAAAGACAAAUCUGCCACAAAGCUUGAGAGCAUCUUUGGAUGCAGAGGCGGCAGACUUCGGUGGCGCCAUAGCGCCAACGUUCUCAACUAUGACACGCAAAACGCGUGCUCCUUUGAAUGGAGUUUAUCAUG, for which the “polymerase ribozyme fitness (log ratio)” value is no more than -4.2. The figure for GGAUCUUCUCGAUCUAACAAAAAAGACAAAUCUGCCACAAAGCUUGAGAGCAUCUUUGGAUGCAGAGGCGGCAGCCUUCGGUGGCGCGAUAGCGACAACGUUCUCAACUAUGACACGCAAAACGCGUGCUCCGUUAAAUGGAGUUUAUCAUG is -0.1; for GGAUCUUCUCGAUCUAACAAAAAAGACAAAUCUGCCACAAAGCUUGAGAGCAUCUUUGGAUGCAGAGGCGGCAGCCUUCGGUGGCGCGAUAGCGCUAACGUUCUCAACUAUGACACGCAAAACGCGUGCUCCGUUGAAUGGAGUUUAUCAUG it is -0.201.

Turning to GGAUCUUCUCGAUCUAACAAAAAAGACAAAUCUGCCACAAAGCUUGAGAGCAUCUUUGGAUGCAGAGGCGGCAGCCUUCGGUGGCGCGAUAGCGCGAACGUUCUCAACUAUGACACGCAAAACGCGUGCUCCGUUGAAUGGAGUUUAUCAUG, the “polymerase ribozyme fitness (log ratio)” value was -0.76. Next, GGAUCUUCUCGAUCUAACAAAAAAGACAAAUCUGCCACAAAGCUUGAGAGCAUCUUUGGAUGCAGAGGCGGCAGCCUUAGGUGGCGCGAUAGCGCCAACGUUCUCAACUCUGACACGCAAAACGCGUGCUCCGUUGAAUGGAGUUUAUCAUG: no more than -4.2. As to GGAUCUUCUCGAUCUAACAAAAAAGACAAAUCUGCCACAAAGCUUGAGAGCAUCUUGGGAUGCAGAGGCGGCAGCCUUCGGUGGCGCGAUAGCGCCAACGUUCUCAACUAUGACACUCAAAACCCGUGCUCCGUUGAAUGGAGUUUAUCAUG, the “polymerase ribozyme fitness (log ratio)” value was -1.64.

In the case of GGAUCUUCUCGAUCUAACAAAAAAGACAAAUCUGCCACAAAGCUUGAGAGCAUCUUGGGAUGCAGAGGCGGCAGCCUUCGGCGGCGCGAUAGAGUCAACGUUCUCAACUAUGACAUGCAAAACGCGUGCUCCGUUGAAUGGAGUUUAUCAUG, the “polymerase ribozyme fitness (log ratio)” value was -3.34. Take GGAUCUUCUCGAUCUAACAAAAAAGACAAAUCUGCCACAAAGCUUGAGAGCAUCUUGGGAUGCAGAGGCGGCAGCCUUCGGAUGCGCGAUAGCGCCAACGUUCUCAACUAUGACACGCAAAACGCGUGCUCCGUUGAAUGUAGUUUAUCAUG: the “polymerase ribozyme fitness (log ratio)” value was -1.49.
